# The nanobody polyreactivity screen of Harvey et al. (2022)
# Test: yeast display, Sf9 membrane polyspecificity reagent, FACS + sequencing; frameworks hold sequencing errors
# Procedure, shortened: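 Using colony PCR, genes from sorted yeast display clones were amplified, then sequenced on MiSeq at 2 × 250 and filtered by CDR length. The clones had been stained with 10% biotinylated, detergent-solubilized Sf9 membrane reagent for 1 hour at 4 °C and sorted by FACS into low and high (top ~1%) gates on anti-HA and streptavidin fluorescence. Polyreactivity labels come from the gate of origin.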
row,Sequence,polyreactivity (PSR sort gate)
1,QVQLVESGGGLVQAGGSLRLSCAACGTIFRRYATGSYRQAPGKERELVAAISSGGSTYADSVKGRFTISRDNAKNTVYFQMNSLKPEDTAVYYCAAYYQLGRHPGTPNGYDYWGHGTQVTVSS,low polyreactivity
2,QVQLVESGGGLVQAGGSLRLSCAACVFIFSRYAMGWYRQAPGKERELVAAISRGGSTNYADSVKGRFTISRDNAKNTVYLQMNSLKPEDTAVYYCAVRQNVRYYYWGQGTQVTVSS,high polyreactivity
3,QVQLVESGGGLVQAGGSLRLSCAAPGSIFYPNAMGWYRQAPGKEREFVAAITKRGGSTYYADSVKGRFTISRDNAKNTVYLQMNSLKPEDTAVYYCAGERSYPRAGRYNYWGQGTQVTVSS,low polyreactivity
4,QVQLVESGGGLVQAGGSLRLSCAASAFIFISYAMGLYRQAAGKERELVAAISSSGVSTYSADSVKGRFTISRDNAKNTVYLQMNSLKPEDTAVYYCAARQQVRLRQGPLYYYWGQGTQVTVSS,high polyreactivity
5,QVQLVESGGGLVQAGGSLRLSCAASAFIFSGNAMGWNRQAPGKERELVAAISGRGGRTYYADSVKGRFTISRDNAKNTVYLQMNSLKPEDTAVYYCAADNPYLGRKFDYWGQGTQVTVSS,high polyreactivity
6,QVQLVESGGGLVQAGGSLRLSCAASAFTFRYNAMGWYRQAPGKERELVATIDWSGGRTYYADSVKGRFTISRDNAKNTVYLQMNSLKPEDTAVYYCNAAALFRYYVRWKSAYDYWGQGTQVTVSS,high polyreactivity
7,QVQLVESGGGLVQAGGSLRLSCAASAFTLLSYAMGWYRQAPGKDRELVASITQRGGSTYYADSVKGRFTISRDNAKNTVDLQMNSLKPEDTAVYYCAARSGYGYRYYYWGQGTQVTVSS,low polyreactivity
8,QVQLVESGGGLVQAGGSLRLSCAASAGIFRYYAMGWYRQAPGKERELVAAITSSGTSTYYADSVKGRFTISRDNAKNTVYLQMNSLKPEDTAVYYCAATRTKRKFDYWGQGTQVTVSS,high polyreactivity
9,QVQLVESGGGLVQAGGSLRLSCAASAIIFAQYTMGWNRQAPGKERELVAAINRNGGSTYYADSVKGRFTISRDNAKNTVYLQMNSLKPEDTAVYYCNADALGFRYDYWGQGTQVTVSS,low polyreactivity
10,QVQLVESGGGLVQAGGSLRLSCAASAITFFNNAMGWYRPATGKERELVADITYSGSTYYADSVKGRFTISRDNAQNSVYLQMNSLKPEDTAVYYCSAGHAYDYFVYYPDDYWGQGTQVTVSS,low polyreactivity
11,QVQLVESGGGLVQAGGSLRLSCAASAITYAYYPMGWYRQAPGKETELVAGITDVGSTNYADSVKGRFTLSRDNAKNTVYLQMNSLKPEDTAGYYCAAEYDGPYYSFYPEQRYYWGQGTQVTVSS,low polyreactivity
12,QVQLVESGGGLVQAGGSLRLSCAASARIQDKYARGWYRQAPGKERELVARIRFSGGDTYADSVKGRFTISRDNAKNTVYLQMNSLKPEDTAVYYCNKDRRNRWYAFDYWGQGTQVTVSS,low polyreactivity
13,QVQLVESGGGLVQAGGSLRLSCAASARNFYANVMGWYRQAPGKEREFVAAIRWSGGRTYYADSVKGRFTISRDNAKNTVYLQMNSLKPEDTAVYYCAADPWDYISYYIYDYWGQGTQVTVSS,low polyreactivity
14,QVQLVESGGGLVQAGGSLRLSCAASARTFGVYAMGWYRQAPGKERELVAAISKSDGSTYYADSVKGRFTISRDNAKITVYLQMNSLKPEDTAVYYCATVTLHQRDTQDDFWGQGTQVTVSS,low polyreactivity
15,QVQLVESGGGLVQAGGSLRLSCAASARTFYRYAMGWYRQAPGKERELVAAITRRSGNTYYADSVKGRFTISRDNAKNTVYLQMNSLKPEDTAVYYFNTVYPRRLIFGYWGQGTQVTVSS,high polyreactivity
16,QVQLVESGGGLVQAGGSLRLSCAASASIFLEYAMGWYRQAPGKERELVAGITISGGSTYYADSVKGRFTISRDNAKNTVYLQMNSLKPEDSAVYYCAKVAPRSSSSLEYYYWGQGTQVTVSS,low polyreactivity
17,QVQLVESGGGLVQAGGSLRLSCAASASIFPRNTMGWYRPAPGKERELVAAISRSGGSTYYADSVKGRFTISRDNAKNTVYLQMNSLKPEDTAVYYCAVSGGTSRRYYYWGQGTQVTVSS,high polyreactivity
18,QVQLVESGGGLVQAGGSLRLSCAASASIFSVYAMGWYRQAPGKERELVAAITRSGARTYYADSVKGRFTISRDNAKNTVYLQMNSLKPDDTAVYYCAADDPGYNQVEYWGQGTQVTVSS,high polyreactivity
19,QVQLVESGGGLVQAGGSLRLSCAASASTFRPYAMGWFRQAPGKEREFVASITWRGGGTYYADSVKGRFTISRDNAKNTVYLQMNSLKPEDTAVFSCAAATQVRGNSLPYGYWGQGTQVTVSS,high polyreactivity
20,QVQLVESGGGLVQAGGSLRLSCAASASTFVSNAMGWYRQAPGKERELVAAISKSGGSTYYADSVKGRFTISRDNAKNTVYLEMNSLKPEDTAVYYCSKYTAISFYGQYDYWGQGTQVTVSS,high polyreactivity
21,QVQLVESGGGLVQAGGSLRLSCAASATFYYYAMGWSRQAPGKERELVAAISYSGGRTYYADSVKGRFTISRDNAKNTVYLQMNSLKPEDTAVYYCNALYRKTPSYGADDYWGQGTQVTVSS,high polyreactivity
